This note sets out measurements from patent publication US6300312A, “Antagonists of G-protein-coupled receptor” (Hô ;pital Sainte-Justine, priority 2000, dated 2001).

For assay [1], the target named is T1, FP receptor (Homo sapiens, UniProt P43088).
T1 construct: introduced transiently into permeabilized A549 cells; endogenous in cells; host or cells: A549 lung carcinoma cells (ATCC CCL185)
In words: Phosphoinositide hydrolysis in A549 cells stably expressing the peptides, stimulated with PGF2α. It is filed as cell-based. The note with it: peptide stably expressed intracellularly in A549 cells; 1 μM PGF2α, 30 min; n=3; FIG. 1A. The protocol:
(§1) A549 lung carcinoma cells (ATCC Accession No.: CCL185, American Type Culture Collection, Rockville, Md. 20852) were cultured in Dulbecco's modified Eagles medium (DMEM) with 10% fetal bovine serum (FBS) and antibiotics, penicillin (10 U/ml) and streptomycin (10 μg/ml) in a humidified atmosphere containing 5% CO2 at 37° C. The cells were trypsinized and plated in 6-well tissue culture dishes at 2×10^5 cells/well, a day before commencing the experiments.
(§2) The expression plasmids carrying the third (PCP-1) and the fourth (PCP-2) intracellular domains were introduced into A549 cells using Transfectamine lipid (GIBCO Life Technologies, Burlington, ON). Three (3) micrograms of DNA and 16 μg of lipid were mixed in 200 μl of water and incubated at room temperature for 45 min. Then, the lipid-DNA complexes were diluted with 0.8 ml of Opti-MEM™ (GIBCO Life Technologies, Burlington, ON). The cells were washed twice with Hank's Balanced Salt Solution and incubated with lipid-DNA complexes for 6 hours. An equal volume of DMEM with 20% FBS was added and the cells were kept in the incubator overnight. On the next day, the medium was replaced with DMEM containing 10% FBS and antibiotics and incubated for another 24 hours. […]

The target of assay [2] is T2, EP1 (Homo sapiens, UniProt P34995).
T2 construct: a related prostaglandin receptor expressed in these cells; endogenous in cells; host or cells: A549 lung carcinoma cells (ATCC CCL185)
T2 sequence (P34995 1-402): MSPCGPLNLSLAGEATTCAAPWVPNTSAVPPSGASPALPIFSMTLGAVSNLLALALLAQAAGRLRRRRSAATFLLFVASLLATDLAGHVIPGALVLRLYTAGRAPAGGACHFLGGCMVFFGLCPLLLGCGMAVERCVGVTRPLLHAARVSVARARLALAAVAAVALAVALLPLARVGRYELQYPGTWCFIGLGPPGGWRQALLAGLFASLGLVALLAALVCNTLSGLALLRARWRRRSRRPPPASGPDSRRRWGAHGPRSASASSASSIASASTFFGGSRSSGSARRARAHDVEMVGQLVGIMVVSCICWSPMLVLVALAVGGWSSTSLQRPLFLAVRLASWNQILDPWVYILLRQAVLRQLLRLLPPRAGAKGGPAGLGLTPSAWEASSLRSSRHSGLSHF
In words: Phosphoinositide hydrolysis in A549 cells stably expressing the peptides, stimulated with PGE2. The assay is classed as cell-based. The note with it: peptide stably expressed intracellularly in A549 cells; 1 μM PGE2, 30 min; FIG. 1B. The protocol:
as §1, §2

T1 sequence (P43088 whole entry): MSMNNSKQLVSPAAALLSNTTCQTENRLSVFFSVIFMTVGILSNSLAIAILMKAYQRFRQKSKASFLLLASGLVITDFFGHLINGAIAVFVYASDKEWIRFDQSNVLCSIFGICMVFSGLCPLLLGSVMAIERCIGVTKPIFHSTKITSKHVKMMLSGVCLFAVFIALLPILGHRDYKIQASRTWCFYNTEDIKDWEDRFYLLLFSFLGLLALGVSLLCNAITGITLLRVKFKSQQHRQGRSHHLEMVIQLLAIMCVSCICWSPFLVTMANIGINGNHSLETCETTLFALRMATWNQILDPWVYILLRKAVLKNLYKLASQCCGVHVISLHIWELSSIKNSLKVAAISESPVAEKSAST

In the case of “RVKFKSQQHR QGRSHHLEM (RVKFKSQQHRQGRSHHLEM) [PCP-1, third intracellular domain of the human FP receptor, expressed intracellularly from a plasmid]”, in assay [1], the “ligand-stimulated phosphoinositide hydrolysis (fold stimulation over unstimulated controls)” value is “inhibited”. The “inositol phosphate generation by EP1 receptor on stimulation with PGE2” value in assay [2] is listed as “did not affect”.

Regarding “RKAVLKNLYKLASQCCGVHVISLHIWELSSIKNSLKVAAISESPVAEKSAST (RKAVLKNLYKLASQCCGVHVISLHIWELSSIKNSLKVAAISESPVAEKSAST) [PCP-2, fourth intracellular domain of the human FP receptor, expressed intracellularly from a plasmid]”, the “ligand-stimulated phosphoinositide hydrolysis (fold stimulation over unstimulated controls)” value in assay [1] was “inhibited”. The “inositol phosphate generation by EP1 receptor on stimulation with PGE2” value in assay [2] is “did not affect”.
